Results taken from doi:10.1101/2020.05.14.095364 (bioRxiv, 2020).

B1: GFP-tagged hZO-1 (residues 1619-1748), isolated ZU5 fragment (domain or fragment, human, UniProt Q07157 1619-1748, looked up)
chain: SAVEEDEDEDGHTVVATARGIFNSNGGVLSSIETGVSIIIPQGAIPEGVEQEIYFKVCRDNSILPPLDKEKGETLLSPLVMCGPHGLKFLKPVELRLPHCDPKTWQNKCLPGDPNYLVGANCVSVLIDHF
B2: GST-CGN(1-70) (domain or fragment, canine, UniProt A7YH32 1-70, looked up)
chain: MEQASTMAEPRGPVDHGVQIRFITEPVGNAEMDTLRRGGRRPAKDARANTYGVAVRVQGIAGQPFVVLNS

Key:
[1] = biological target: B2; assay: pull-down
[2] = biological target: B1; assay: quantitative GST-pulldown supernatant depletion assay

Row | fold binding against the other ZO-1 fragments [1] | Kd [2] | Binder
1 | > 4 fold |  | B1
2 |  | 40.4 nM | B2
